The supplement of paper PMC9732359
± gives the uncertainty stated by the source.

Experiment: protein stability index of a GFP-peptide fusion (yeast GPS) (PSI 1-4); higher = more stable; sorted into four equal gates, so the index is relative within each strain
Outline: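 The protein stability index combines read frequencies across sorting gates, each weighted by its gate number and then summed. To obtain those frequencies, a pooled yeast library of GFP fusions to tiled 17-residue yeast protein peptides, on a plasmid also expressing Cherry, was grown to mid-log phase in leucine-free medium. The cells were sorted into four equal gates by GFP/Cherry ratio before plasmid amplification by PCR and Illumina sequencing.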

Row | Sequence | protein stability index (doa10∆) | protein stability index (pdr5∆) | protein stability index (san1∆) | protein stability index (ubr1∆)
1 | PSILEDSLENNEGVPSP [FAS1] | 3.29 ± 0.23 | 2.79 ± 0.22 | 3.22 ± 0.17 | 3.14 ± 0.2
2 | FFAAIRFVLSDDYSNLK [SMC3] | 2.27 ± 0.091 | 2.68 ± 0.13 | 2.56 ± 0.1 | 2.7 ± 0.07
3 | ENSAVAAKEGLALSSNI [COR1] | 1.84 ± 0.065 | 2.66 ± 0.064 | 2.49 ± 0.084 | 2.17 ± 0.053
4 | LEACIVRIMKAKRNLPH [CDC53] | 1.5 ± 0.087 | 1.61 ± 0.059 | 1.3 ± 0.13 | 1.21 ± 0.045
5 | FRCKETHSYNFMRQNLE [RPC82] | 2.52 ± 0.078 | 1.88 ± 0.093 | 1.96 ± 0.093 | 2.44 ± 0.065
6 | YFLDVKCPGCLNITTVF [RPS27A] | 2.64 ± 0.054 | 2.6 ± 0.055 | 2.19 ± 0.1 | 2.85 ± 0.054
7 | SSFKKNLLKFITSNHKS [RPN3] | 1.46 ± 0.053 | 1.5 ± 0.049 | 1.3 ± 0.064 | 1.83 ± 0.092
8 | RNVGKTLVNKSTGLKNA [RPS1B] | 2.81 ± 0.098 | 2.72 ± 0.097 | 2.59 ± 0.12 | 2.96 ± 0.086
9 | SLYIFFTTLLESKQDGL [YML103C/NUP188] | 2.29 ± 0.12 | 1.42 ± 0.085 | 1.25 ± 0.1 | 1.19 ± 0.036
10 | QFEIPISDDDDSALRYS [POP4] | 2.98 ± 0.071 | 2.75 ± 0.096 | 2.54 ± 0.049 | 3.16 ± 0.038
11 | KNNSSIRNVIMSASNAN [SRB8] | 1.59 ± 0.037 | 2.13 ± 0.053 | 1.88 ± 0.095 | 1.75 ± 0.044
12 | KTTNTTPSFSFGAKSDE [YJL041W/NSP1] | 3.27 ± 0.079 | 3.24 ± 0.082 | 3.09 ± 0.035 | 3.18 ± 0.048
13 | VTVHSLTGEATANALPL [RPL4A] | 2.75 ± 0.069 | 2.76 ± 0.053 | 2.17 ± 0.052 | 2.86 ± 0.041
14 | QHQSLSRSSSKNVNIED [ESC2] | 2.83 ± 0.18 | 2.69 ± 0.11 | 2.32 ± 0.11 | 3.04 ± 0.084
15 | AHAIDQMTWRQWLNNAL [POP8] | 2.67 ± 0.065 | 2.6 ± 0.046 | 2.41 ± 0.055 | 2.58 ± 0.04
16 | KYQKALHYLKKFKHIDD [SRP72] | 2.04 ± 0.1 | 2.96 ± 0.12 | 2.57 ± 0.17 | 2.31 ± 0.14
17 | HGHLGFLPRKRAASIRA [RPL3] | 2.1 ± 0.086 | 2.44 ± 0.067 | 2.79 ± 0.055 | 2.2 ± 0.077
18 | KAKYNTPKYRLVVRFTN [RPL5] | 1.39 ± 0.049 | 1.53 ± 0.073 | 1.24 ± 0.21 | 1.12 ± 0.068
19 | TGEAQVDNSPTTESNSR [YLR335W/NUP2] | 2.98 ± 0.086 | 2.83 ± 0.09 | 2.59 ± 0.13 | 3.06 ± 0.092
20 | KIADLVRIPPDQFHRDT [RPC25] | 2.18 ± 0.063 | 2.52 ± 0.062 | 2.45 ± 0.085 | 2.93 ± 0.088
21 | YGITHGLTNWAAAYATG [RPL5] | 2.17 ± 0.086 | 2.43 ± 0.067 | 2.28 ± 0.09 | 2.26 ± 0.056
22 | DSSYQDIFAVNLEESSK [RET1] |  | 2.09 ± 0.25 | 2.29 ± 0.26 | 
23 | KALQSIGQLIGEVMKEL [RPT4] | 3.35 ± 0.092 | 3.17 ± 0.15 | 3.39 ± 0.095 | 3.36 ± 0.058
24 | YCDKNFRENMSKEETVD [PRE3] | 3.02 ± 0.076 | 3.09 ± 0.073 | 3.04 ± 0.066 | 2.92 ± 0.049
25 | TFRLPKTLKLARAPKYA [RPL25] | 1.69 ± 0.076 | 1.61 ± 0.072 | 1.23 ± 0.19 | 1.19 ± 0.047
26 | SKLDYIFKDKEKLVSDL [SMC1] | 2.89 ± 0.15 | 3.24 ± 0.085 | 3.27 ± 0.2 | 3.37 ± 0.083
27 | NKPAIKEDSTIQDSNGD [SWI3] | 2.92 ± 0.076 | 3.05 ± 0.073 | 3.14 ± 0.06 | 3.04 ± 0.054

Row | Sequence | protein stability index (doa10∆) | protein stability index (pdr5∆) | protein stability index (san1∆) | protein stability index (ubr1∆)
28 | VYTLACRSCPYEFPIEG [RPC11] | 1.22 ± 0.16 | 1.36 ± 0.15 |  | 1.54 ± 0.17
29 | SKVGSADTGRDDTKETV [RPN11] | 3.14 ± 0.13 | 3.36 ± 0.089 | 3.59 ± 0.068 | 3.04 ± 0.12
30 | HVNKRKRVSGTSQHSDS [YOR098C/NUP1] | 1.93 ± 0.077 | 2.31 ± 0.11 | 2.22 ± 0.1 | 1.64 ± 0.076
31 | WNLLRSLYIFFTTLLES [YML103C/NUP188] | 2.08 ± 0.058 | 1.58 ± 0.044 | 1.69 ± 0.06 | 1.43 ± 0.028
32 | IGVETGSEPLIQQVVEY [PRP28] | 2.99 ± 0.065 | 3.08 ± 0.084 | 2.95 ± 0.067 | 2.73 ± 0.16
33 | QEGKISSVYRLKFAVQV [RPL26A] | 3.09 ± 0.089 | 3.25 ± 0.11 | 3.1 ± 0.095 | 3.76 ± 0.12
34 | CDVFWVQKDTAIIRLHP [POP1] | 2.29 ± 0.079 | 2.62 ± 0.097 | 2.5 ± 0.095 | 2.58 ± 0.079
35 | YLREDQMIDTSILPTRD [NUT1] | 3.21 ± 0.069 | 2.98 ± 0.068 | 2.94 ± 0.072 | 2.42 ± 0.048
36 | KMLNEFVKKTSEEIDSL [SMC2] | 2.61 ± 0.099 | 3.19 ± 0.15 |  | 3.09 ± 0.12
37 | ITSLQDSSSQCIVDFTN [YMR129W/POM152] | 2.67 ± 0.067 | 2.92 ± 0.066 | 2.69 ± 0.058 | 2.85 ± 0.059
38 | FERFPSPSTSANVPSTA [RPN4] | 1.81 ± 0.046 | 1.92 ± 0.04 | 1.56 ± 0.077 | 2.36 ± 0.039
39 | LAGMDVEDALDKDSTKE [FAS2] | 3.43 ± 0.27 | 3.72 ± 0.19 |  | 
40 | TSVQEKELMLQSKKLIE [YIL149C/MLP2] | 2.65 ± 0.089 | 2.94 ± 0.096 | 2.84 ± 0.084 | 2.91 ± 0.063
41 | ILDINVSSSKNKKSEEN [SWP82] | 3.36 ± 0.15 | 3.21 ± 0.083 | 3.27 ± 0.08 | 3.27 ± 0.079
42 | IALEGYRLDIIESALKS [RPN2] |  | 1.49 ± 0.15 |  | 1.25 ± 0.15
43 | LLHNHLKSIESLKLENS [SMC2] | 1.4 ± 0.1 | 1.82 ± 0.11 | 1.24 ± 0.28 | 2.52 ± 0.21
44 | LRKQYSAIDEEIEELID [SMC3] |  | 2.98 ± 0.2 |  | 3.26 ± 0.2
45 | NPTKSKEILDNILPFLW [ECM29] | 2.26 ± 0.085 | 2.97 ± 0.1 | 2.8 ± 0.23 | 2.61 ± 0.085
46 | SKDELREKLAEVYKAEK [RPS24A] | 3.51 ± 0.16 | 3.48 ± 0.15 | 3.59 ± 0.08 | 3.56 ± 0.16
47 | SRGAVSGQKAGLIAARR [RPL2A] | 3.4 ± 0.093 | 3.32 ± 0.083 | 3.27 ± 0.065 | 3.25 ± 0.097
48 | IKTVVLVPQLGHVGSVQ [PRP8] | 2.42 ± 0.056 | 2.47 ± 0.049 | 2.28 ± 0.063 | 2.35 ± 0.041
49 | TNYYLTTARNDLGVVFA [CSL4] | 2.04 ± 0.066 | 2.39 ± 0.078 | 2.51 ± 0.075 | 2.82 ± 0.072
50 | VSKQLGNGLVDENKVEA [YAR002W/NUP60] | 3.17 ± 0.082 | 3.02 ± 0.068 | 3.38 ± 0.048 | 3.21 ± 0.049
51 | KKPGKIAKPNTANAKHT [SMB1] | 2.87 ± 0.071 | 2.73 ± 0.091 | 2.75 ± 0.089 | 2.85 ± 0.066
52 | RHLVNRGREEAASFKKL [PRE10] | 3.07 ± 0.059 | 3.2 ± 0.1 | 3 ± 0.084 | 2.85 ± 0.089
53 | TRAMEYLKFRELPAGQN [RPB2] | 2.4 ± 0.072 | 2.75 ± 0.084 | 3.13 ± 0.071 | 3.02 ± 0.13
54 | MREITETIAEAKKKVLD [RPO21] | 3.5 ± 0.13 | 3.42 ± 0.09 | 3.42 ± 0.037 | 3.24 ± 0.091
